From patent publication US20070293425A1 (JULIUS MAXIMILIANS UNIVERSITAT WURZBURG, published 2007) come the findings set out here.

Where a chain is given by its changes, count along the chain named. Numbers in names are those of the source.

Assay [1] has as its target T1, Gremlin.
T1 construct: Bought (R&D systems)
The experiment in a line: BIAcore, immobilised Gremlin, BMP-2 as analyte. The protocol: (§1) Proteins were biotinylated and immobilised to streptavidin-coated sensor chip CM5 (Kirsch et al., 2000a). The extracellular domain of BRIA, BRIB and ARII were prepared as described (Kirsch et al., 2000a). […] Interaction with analyte was measured on a BIAcore 2000 system (Kirsch et al., 2000a). Evaluation of sensorgrams (Biaevaluation software 2.0) yielded kinetic constants for complex formation (kₒₙ) and dissociation (koff). […] Apparent dissociation constants KD were either calculated as KD=koff/kₒₙ or by evaluating dose dependency of equilibrium binding.

The target in assay [2] is T2, Chordin CR1.
T2 construct: domain: CR1; also called Chordin domain CR1
The experiment in a line: BIAcore, immobilised Chordin CR1, BMP-2 as analyte. The protocol:
as §1

The target in assay [3] is T3, Activin receptor II ectodomain.
T3 construct: extracellular domain; Biotinylated, immobilised on a streptavidin chip; also called ARII; type II receptor ARII
The experiment in a line: BIAcore, immobilised ARII ectodomain, BMP-2 as analyte. How it is done: as §1

The target in assay [4] is T4, BRIBEC, extracellular domain of BMPR-IB.
T4 construct: extracellular domain; Biotinylated, immobilised on a streptavidin chip; also called BRIB receptor
The experiment in a line: BIAcore, immobilised BRIB ectodomain, BMP-2 as analyte. How it is done: as §1

For assay [5], the target named is T5, Chordin CR3.
T5 construct: domain: CR3; also called Chordin domain CR3
The experiment in a line: BIAcore, immobilised Chordin CR3, BMP-2 as analyte. How it is done:
as §1

For assay [6], the target named is BRIA receptor on C2C12 and ATDC5 cells. In words: cell-based or functional assay.
Assay [7] concerns the target T3, Activin receptor II ectodomain. In words: BIAcore, immobilised ARII ectodomain, mutein as analyte, against BMP-2 wild type. The protocol:
as §1

The target of assay [8] is T4, BRIBEC, extracellular domain of BMPR-IB. In words: BIAcore, immobilised BRIB ectodomain, mutein as analyte, against BMP-2 wild type. How it is done:
as §1

In assay [9] the target is T5, Chordin CR3. The experiment in a line: BIAcore, immobilised Chordin CR3, mutein as analyte, against BMP-2 wild type. How it is done:
as §1

For assay [10], the target named is T6, Noggin/Fc.
T6 construct: Bought (R&D systems); construct not described; also called Noggin-Fc fusion protein
T6 sequence (Q13253 whole entry, species assumed, looked up): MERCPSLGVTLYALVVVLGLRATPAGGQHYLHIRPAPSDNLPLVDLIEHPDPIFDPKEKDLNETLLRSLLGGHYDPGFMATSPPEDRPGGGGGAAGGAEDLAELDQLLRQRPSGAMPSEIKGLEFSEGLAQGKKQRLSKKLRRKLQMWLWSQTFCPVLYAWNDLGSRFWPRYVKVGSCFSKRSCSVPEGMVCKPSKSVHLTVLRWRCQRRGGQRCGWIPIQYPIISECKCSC
In words: BIAcore, immobilised Noggin. The protocol: as §1

Assay [11] deals with T6, Noggin/Fc. In words: BIAcore, immobilised Noggin, mutein as analyte, against BMP-2 wild type. The protocol:
as §1

Assay [12] deals with T2, Chordin CR1. In words: BIAcore, immobilised Chordin CR1, mutein as analyte, against BMP-2 wild type. How it is done:
as §1

The target in assay [13] is T1, Gremlin. The experiment in a line: BIAcore, immobilised Gremlin, mutein as analyte, against BMP-2 wild type. The protocol: as §1
T1 sequence (O70326 25-184): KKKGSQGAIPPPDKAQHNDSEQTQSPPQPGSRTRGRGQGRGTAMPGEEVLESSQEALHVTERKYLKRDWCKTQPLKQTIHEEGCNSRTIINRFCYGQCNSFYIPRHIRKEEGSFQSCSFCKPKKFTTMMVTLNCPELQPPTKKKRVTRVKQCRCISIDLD

T3 sequence (P27037 20-135): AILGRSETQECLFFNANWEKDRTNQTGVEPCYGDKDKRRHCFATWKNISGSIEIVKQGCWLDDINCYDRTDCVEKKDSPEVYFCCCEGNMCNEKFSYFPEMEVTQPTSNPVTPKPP
T4 sequence (P36898 14-126): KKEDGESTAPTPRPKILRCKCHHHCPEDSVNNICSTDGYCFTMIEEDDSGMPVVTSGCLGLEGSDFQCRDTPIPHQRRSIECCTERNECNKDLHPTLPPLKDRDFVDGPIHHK

B1: BMP-2 wild type (ligand)
chain: QAKHKQRKRLKSSCKRHPLYVDFSDVGWNDWIVAPPGYHAFYCHGECPFPLADHLNSTNHAIVQTLVNSVNSKIPKACCVPTELSAISMLYLDENEKVVLKNYQDMVVEGCGCR
notes: also called hBMP-2; human BMP-2
Take B1: the Kd came to 0.022 µM in [1]; 0.061 µM in assay [2]; 0.014 µM in assay [3]; 0.0036 µM in assay [4]; 0.067 µM in assay [5]. Besides, the “ED50 of induction of alkaline phosphatase (ALP) activity in ATDC5 cells” value (“ED50 of induction … in ATDC5 cells” for short) in [6] is 0.008 µM. Besides, in assay [6], the “ED50 of induction of alkaline phosphatase (ALP) activity in C2C12 cells” value (“ED50 of induction … in C2C12 cells” for short) worked out at 0.025 µM.

B2: BMP-2 S69R (ligand)
chain: B1 chain with S69R
notes: also called S69R mutein
In the case of B2, the “KD(Mut)/KD(WT)” value in [7] came out at 0.9 ratio.

B3: BMP-2 D53A (ligand)
chain: B1 chain with D53A
On to B3, for which the “KD(Mut)/KD(WT)” value in [7] amounted to 1.2 ratio; in assay [8], 0.34 ratio.

B4: BMP-2 D53P (ligand)
chain: B1 chain with D53P
notes: also called BMP-2 proline mutein D53P
In the case of B4, the “KD(Mut)/KD(WT)” value in assay [7] is 1.2 ratio; in assay [8], 10 ratio. Further, the “KD(mut)/KD(WT)” value was determined as 1.1 ratio in [9], 1.3 ratio in [11], 0.7 ratio in assay [12] and 0.7 ratio in assay [13]. Further, in [10], the Kd is 0.0025 µM. The “ED50 of induction … in ATDC5 cells” value in [6] worked out at 0.14 µM. The “ED50 of induction … in C2C12 cells” value in [6] was 0.33 µM.

B5: BMP-2 L51P (ligand)
chain: B1 chain with L51P
notes: also called L51P mutein; BMP-2 proline mutein L51P
For B5, the “KD(Mut)/KD(WT)” value in assay [7] was 2.3 ratio. Moreover, the “KD(mut)/KD(WT)” value in [9] was found to be 0.9 ratio; in assay [11] it was 0.27 ratio; in assay [12], 0.85 ratio; in assay [13], 0.55 ratio. Also, in [10], the Kd stood at 0.0005 µM. Further, the “ED50 of induction … in ATDC5 cells” value in [6] is above 1.5 µM. Also, the “ED50 of induction … in C2C12 cells” value in assay [6] is above 1.6 µM.

B6: BMP-2 Y103A (ligand)
chain: B1 chain with Y103A
On to B6, for which the “KD(Mut)/KD(WT)” value in assay [7] turned out to be 1.4 ratio; in [8] it was 3.2 ratio.

B7: BMP-2 W28F (ligand)
chain: B1 chain with W28F
notes: also called W28F mutein
As for B7, the “KD(Mut)/KD(WT)” value came to 1.2 ratio in [7] and 1.7 ratio in assay [8].
